From the supplement of paper PMC9170038

Tested on: MS2 coat protein
Assay: apparent KD of MS2 coat protein; designed switch direction (-1 OFF switch, 1 ON switch): 1; higher = weaker reporter binding
Procedure, shortened: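 Designed RNA switches with common flanks were transcribed on Illumina chips by stalled E. coli RNA polymerase and titrated with SNAP-549-labelled MS2 coat protein, from 0.7 or 1.5 nM doubling to 3 µM, in Tris-HCl pH 7.5 buffer with KCl, MgCl2, BSA, DTT, tRNA and Tween-20. Steps lasted 0.8–1.5 h (lowest) to 10–20 min (highest). Titrations ran without input, with 200 uM small-molecule ligand, or with an oligonucleotide input. Normalised cluster fluorescence was curve-fitted, and apparent KD is the per-design median over clusters.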

[1] = input ligand: microRNA oligo, concentration not stated
[2] = Eterna round: R95, input ligand: FMN 200 uM
[3] = Eterna round: R95, input ligand: microRNA oligo, concentration not stated
[4] = Eterna round: R95, input ligand: none

Sequence | apparent KD of MS2 coat protein (input ligand: FMN 200 uM) [nM] | apparent KD of MS2 coat protein [1] [nM] | apparent KD of MS2 coat protein (input ligand: none) [nM] | apparent KD of MS2 coat protein [2] [nM] | apparent KD of MS2 coat protein [3] [nM] | apparent KD of MS2 coat protein [4] [nM]
AGUCCAGCCUGAGCUGGACAAAAGCAUGUACAUGAGGAUCACCCAUGUUCAUGUACAAGCUUUUUGCUCGUCUUAAA [JL zipper 52] (Eterna round: R96, puzzle: Sensor for hsa-mir-208a) | 615 | 13.8 | 636 | – | – | –
GGUAGGUUACUACCAGACAUGAGGAUCACCCAUGUAAGUGGGAAGGAUAUGGUACCUUUUAGGUACCAGAAGGUCCAUAUAUUC [JL SSNG3 1.44] (Eterna round: R96, puzzle: Same State NG 3) | 178 | 637 | 849 | – | – | –
UCUUGGUUUUUGCUCGUUUUUUGUGUUGAACAUGAGGAUCACCCAUGUAUUGUACAAUCCAGUUUGAUAAUGGUCCA [Mod of one of JR's submissions] (puzzle: Sensor for hsa-mir-208a) | – | – | – | 80.2 | 77.6 | 102
GUGCGGGUGCCACAGGAUAUACGUGGAUCGACAUGAGGAUCACCCAUGUAUAUCCUAAUAAUUGCGUAGAAGGGUGGUCAGCCGU [Enbebiqu] (puzzle: Same State 2) | – | – | – | 85.9 | 308 | 340
AACAAUCUAUCUGAGGAUAUCAUGUCAAAGACAUGAGGAUCACCCAUGUACCAGGAAACUGGAUAUGAGAAGGCAGAUAGAUUGA [SS2: 1119] (Eterna round: R96, puzzle: Same State 2) | 16.6 | 80 | 162 | – | – | –
CCGUGGUAACAUGAGGAUCACCCAUGUACAAGCUUUUUGCUCGUUGGAUCCGGCGCGCCCAUUAUGGGCGCGCCGGA [Nishu_Seq2] (puzzle: Sensor for hsa-mir-208a version 2) | – | – | – | 26.2 | 16 | 25.6
CAAACUUAGUAGGGUAGGUACCCAGGAUGACAUGAGGAUCACCCAUGUAAGAGCUUUUUGCUCGUCAUUAACAGUUG [JR_SHM208a_Sub018] (puzzle: Sensor for hsa-mir-208a) | – | – | – | 57.5 | 102 | 74.5
AAGAAUCUAUCUCAGGAUAUCAUGUCAAAGACAUGAGGAUCACCCAUGUACCAGGAAACUGGUUAUGAGAAGGGAGAUAGAUUCA [Mat - Same State 2 - Mod - D31] (puzzle: Same State 2) | – | – | – | 98.6 | 118 | 79.6
AAGACAAGCUUUAUGUUCUUCCUAUUCCAACAUGAGGAUCACCCAUGUAGUCUGACGAUUGUGAGUGUAGUUGAGAU [JR_SHM208A_Sub027] (puzzle: Sensor for hsa-mir-208a) | – | – | – | 58.3 | 76.9 | 76.5
AGAGCCGGCACUGAGGAUAUUCAUAUUAAAACAUGAGGAUCACCCAUGUAGGCCAGAAGGCCUUGGGAGAAGGCAGGUCGGCUCU [Mat - Same State 2 - Mod of UCT - D61] (Eterna round: R96, puzzle: Same State 2) | 18.7 | 201 | 366 | – | – | –
GAGUGACAUGAGGAUCACCCAUGUAGAAUAGAACAAGGAUAUGUGGAAGGCGGAGGAGAGACAGAAGGUGUUGAAG [JR_SS1_Sub057] (puzzle: Same State 1) | – | – | – | 49 | 46 | 67.7
GUAUAACAUGAGGAUCACCCAUGUCAUCUAAGUCGAGGAUAUGGGAAUUAAUUAAUUAAACCAGAAGGCGAAAAUG [Mat - Same State 1 - D93] (puzzle: Same State 1) | – | – | – | 48.2 | 291 | 300
GGACGUCAUCUCACUGAUUAAACAUGAGGAUCACCCAUGUCACAGGAUAUGGAUCCGAUUAGGAUCCAGAAGGGUGUGACGUCC [Fiskers NG3ss - 43] (Eterna round: R96, puzzle: Same State NG 3) | 21.4 | 19.3 | 24.2 | – | – | –
GGAGAGAGAGCGCAGGAUAUUCAAGGAGAAACAUGAGGAUCACCCAUGUGAGAGAGAGAGGAGAGGGAGAAGGGUGAGAGAGAGG [Altered State 2-13 - Jieux - Same State 2] (puzzle: Same State 2) | – | – | – | 23.1 | 30.4 | 33.6
AGUCCAGCCAAAGCUGGACAAAAGCAUGUACAUGAGGAUCACCCAUGUUCAUGUACAAGCUUUUUGCAAGUCAAAAG [Mat - hsa-mir-208a - Mod of JL - 77] (puzzle: Sensor for hsa-mir-208a) | – | – | – | 332 | 29.5 | 498
GAGAGAUGGCGAGGAUAUUCGGUGAUAAUGAUGGAAGAAGGCGCUGACAUGAGGAUCACCCAUGUGGGAAUAAUCCAGAGAGAG [Parity 16 - Jieux - Same State NG 1] (Eterna round: R96, puzzle: Same State NG 1) | 306 | 154 | 257 | – | – | –

Sequence | apparent KD of MS2 coat protein (input ligand: FMN 200 uM) [nM] | apparent KD of MS2 coat protein [1] [nM] | apparent KD of MS2 coat protein (input ligand: none) [nM] | apparent KD of MS2 coat protein [2] [nM] | apparent KD of MS2 coat protein [3] [nM] | apparent KD of MS2 coat protein [4] [nM]
UCAAGCGAGAGGCUCGUCUUAUGUUUGGUACAUGAGGAUCACCCAUGUUAGGGACGAUUUAGUUAGAUGGAAUUUUG [JR_SHM208A_Sub035] (puzzle: Sensor for hsa-mir-208a) | – | – | – | 48.5 | 269 | 65.7
AAGAAACAUGAGGAUCACCCAUGUGAGAAUAUGGGAGGAUAUACAAGGACGUAAGUCAAGGUAGAAGGCCUAAGAA [Mat - Same State 1 - Meechl mod - D139] (Eterna round: R96, puzzle: Same State 1) | – | 143 | – | – | – | –
GGAAGGAGGUCAGGAUAUGAACGGAAGGUACAUGAGGAUCACCCAUGUUACGGAGGAAGGAAACGUUAGAAGGGACAAGGAAGG [AK SSNG2-V2-3] (Eterna round: R96, puzzle: Same State NG 2) | 14.8 | 12.8 | 18.1 | – | – | –
ACAUGAGAGGGAGGAUAUUUUGUACCUACAUGUGACAUGAGGAUCACCCAUGUGGUAAGUAUGAGAAAGAAGGCCCAGAUAUGU [Equivalence 18 - Jieux - Same State NG 2] (Eterna round: R96, puzzle: Same State NG 2) | 17.4 | 18.9 | 27.4 | – | – | –
AAGAAUCUAUCUCAGGAUAUCAUGUCAAAGACAUGAGGAUCACCCAUGUACCAGGAAACUGGUUAUGAGAAGGGAGAUAGAUUCG [Mat - Same State 2 - Mod - D37] (puzzle: Same State 2) | – | – | – | 235 | 134 | 233
GGAGCCGGCACCGAGGAUAUUCAUAUUAAAACAUGAGGAUCACCCAUGUACGCCAGAAGGCGUUGGGAGAAGGCGGAUCGGCUCG [Xeonanis - 22] (puzzle: Same State 2) | – | – | – | 57.6 | 79.9 | 362
AGUCCAGCCUGAGCUGGACAAAAGCAUGUACAUGAGGAUCACCCAUGUUCAUGUACAAGCUUUUUGCUCGUCUUAUU [salish99_208a_r3_047] (puzzle: Sensor for hsa-mir-208a) | – | – | – | 457 | 14.1 | 725
GGACGUCAUCUCACUGAUUAAACAUGAGGAUCACCCAUGUCAGAGGAUAUGAGUCCGAUUAGGACUCAGAAGGCUGUGACGUCC [Fiskers NG3ss - 46] (Eterna round: R96, puzzle: Same State NG 3) | 19.6 | 9.14 | 16 | – | – | –
UUUAUACAUGAGGAUCACCCAUGUCAACAAAGUCGAGGAUAUGGGCAUAUUAUCUUAUUUCCAGAAGGCGAAUUCU [salish99_ss1_r3_090] (Eterna round: R96, puzzle: Same State 1) | 101 | 305 | 378 | – | – | –
GACAUUCUAUCUCAGGAUAUCAUGUCAAAGACAUGAGGAUCACCCAUGUACCAGGAAACUGGUUAUGAGAAGGGAGAUAGAAUGG [Mat - Same State 2 - Mod - D47] (puzzle: Same State 2) | – | – | – | 122 | 119 | 221
UAAAAGAAUUAAGGAUAUUGAAUACAUAUGUUUAACAUGAGGAUCACCCAUGUGGGUUGCGGUAUCGAGAAGGUAAAAUAAUAG [Mat - Same State NG 2 - JL mod - D6] (Eterna round: R96, puzzle: Same State NG 2) | 163 | 110 | 151 | – | – | –
GAUUCACAUGAGGAUCACCCAUGUCGUAAUAUGGGAGGAUAUACGUGGACCGUAGUCCGCGUAGAAGGCCUAAUUG [Mat - Same State 1 - Mod of JL - D25] (puzzle: Same State 1) | – | – | – | – | 148 | –
GGCGAACAGGCCGACAUGAGGAUCACCCAUGUGGCCUCAUGUCAGGAUAUCGGGAAGGAGGAAACCGAGAAGGGACGGUGAGCC [AK SSNG3-V2-44] (Eterna round: R96, puzzle: Same State NG 3) | 88.9 | 5.6 | 65.1 | – | – | –
UAAUUAAGUCAAGGAUAUCACGUCGUUUAGACGUGAGAAGGUGAUUAAUACAUGAGGAUCACCCAUGUAAUACAUGAAUAAUUA [SSNG1/11-B3] (Eterna round: R96, puzzle: Same State NG 1) | 51.3 | 59.5 | 64.5 | – | – | –
AGCUAGUACGAAGGAUAUACAAACAUGAGGAUCACCCAUGUAUACAUGGUUAGAUGUGACUACAUGUAGAAGGUCGUACUAGCA [SameState NG2 #15] (Eterna round: R96, puzzle: Same State NG 2) | 225 | 331 | 443 | – | – | –
